Results from publication PMC7933982 (The Journal of Cell Biology, 2021).

Target: T1, GST-CBD (S. cerevisiae, UniProt P19524 1152-1574)
T1 sequence (looked up): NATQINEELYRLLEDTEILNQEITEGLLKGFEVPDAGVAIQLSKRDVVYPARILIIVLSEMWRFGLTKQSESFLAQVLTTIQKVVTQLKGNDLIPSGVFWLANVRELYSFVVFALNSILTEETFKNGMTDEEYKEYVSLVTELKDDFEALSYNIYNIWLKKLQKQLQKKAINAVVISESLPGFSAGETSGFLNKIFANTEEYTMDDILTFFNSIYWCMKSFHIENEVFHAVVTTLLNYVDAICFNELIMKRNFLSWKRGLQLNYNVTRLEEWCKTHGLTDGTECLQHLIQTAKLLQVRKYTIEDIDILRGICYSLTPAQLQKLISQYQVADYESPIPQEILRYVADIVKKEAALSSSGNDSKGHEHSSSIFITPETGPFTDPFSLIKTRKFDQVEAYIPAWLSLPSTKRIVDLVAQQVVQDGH
Assay: pull-down

B1: 6xHis-Pea2_(221–350) (domain or fragment, S. cerevisiae, UniProt P40091 221-350, looked up)
chain: EKNTSSPPISPNAAAIQEEDSSKKLEELETAFSDLQLAHNFLTKQFENDRAEYVQDIEKLTRTNRELQDKLLNNHSNLSKTEKKLHELEQENKELEKANNKLNSSRHNFGMSSPASSPVTWDPSSPSSVG
- binding result: binds
